# Measured values reported in article PMC3959856.
# Target: SpyTag-MBP (Streptococcus pyogenes)
# Assay: covalent adduct formation by SDS-PAGE densitometry
substance,measurement,value
full-length SpyCatcher (as used in the reaction assay of Fig. 4b) (domain or fragment),percent covalent complex formation after 1 min,40%
same,percent covalent complex formation after 10 min,65%
